In the assay the target is Concanavalin A (Canavalia ensiformis). Put plainly: native MS; static nESI under native-like conditions, 200 mM ammonium acetate pH 6.8, 5 uM monomer; tetramer [M + 21H]21+ ions (m/z 4901) selected with the quadrupole, then 193 nm UVPD or HCD, read by Orbitrap or orthogonal TOF/TPX3; tetramer dissociates to monomers and trimers.

In general, stoichiometry N refers to a count of units in the complex or per binding partner. In the case of Concanavalin A (natural protein), the stoichiometry N came to 4.
